Measurements from patent publication US20250262210A1 (TRUSTEES OF COLUMBIA UNIVERSITY IN THE CITY OF NEW YORK, published 2025).

Columns and labels:
UBE4B = target: T1, UBE4B (human, UniProt O95155 1-1302, limits assumed); assay: IP/MS, LZTR1 R810W-FLAG, U87
T1 sequence (looked up): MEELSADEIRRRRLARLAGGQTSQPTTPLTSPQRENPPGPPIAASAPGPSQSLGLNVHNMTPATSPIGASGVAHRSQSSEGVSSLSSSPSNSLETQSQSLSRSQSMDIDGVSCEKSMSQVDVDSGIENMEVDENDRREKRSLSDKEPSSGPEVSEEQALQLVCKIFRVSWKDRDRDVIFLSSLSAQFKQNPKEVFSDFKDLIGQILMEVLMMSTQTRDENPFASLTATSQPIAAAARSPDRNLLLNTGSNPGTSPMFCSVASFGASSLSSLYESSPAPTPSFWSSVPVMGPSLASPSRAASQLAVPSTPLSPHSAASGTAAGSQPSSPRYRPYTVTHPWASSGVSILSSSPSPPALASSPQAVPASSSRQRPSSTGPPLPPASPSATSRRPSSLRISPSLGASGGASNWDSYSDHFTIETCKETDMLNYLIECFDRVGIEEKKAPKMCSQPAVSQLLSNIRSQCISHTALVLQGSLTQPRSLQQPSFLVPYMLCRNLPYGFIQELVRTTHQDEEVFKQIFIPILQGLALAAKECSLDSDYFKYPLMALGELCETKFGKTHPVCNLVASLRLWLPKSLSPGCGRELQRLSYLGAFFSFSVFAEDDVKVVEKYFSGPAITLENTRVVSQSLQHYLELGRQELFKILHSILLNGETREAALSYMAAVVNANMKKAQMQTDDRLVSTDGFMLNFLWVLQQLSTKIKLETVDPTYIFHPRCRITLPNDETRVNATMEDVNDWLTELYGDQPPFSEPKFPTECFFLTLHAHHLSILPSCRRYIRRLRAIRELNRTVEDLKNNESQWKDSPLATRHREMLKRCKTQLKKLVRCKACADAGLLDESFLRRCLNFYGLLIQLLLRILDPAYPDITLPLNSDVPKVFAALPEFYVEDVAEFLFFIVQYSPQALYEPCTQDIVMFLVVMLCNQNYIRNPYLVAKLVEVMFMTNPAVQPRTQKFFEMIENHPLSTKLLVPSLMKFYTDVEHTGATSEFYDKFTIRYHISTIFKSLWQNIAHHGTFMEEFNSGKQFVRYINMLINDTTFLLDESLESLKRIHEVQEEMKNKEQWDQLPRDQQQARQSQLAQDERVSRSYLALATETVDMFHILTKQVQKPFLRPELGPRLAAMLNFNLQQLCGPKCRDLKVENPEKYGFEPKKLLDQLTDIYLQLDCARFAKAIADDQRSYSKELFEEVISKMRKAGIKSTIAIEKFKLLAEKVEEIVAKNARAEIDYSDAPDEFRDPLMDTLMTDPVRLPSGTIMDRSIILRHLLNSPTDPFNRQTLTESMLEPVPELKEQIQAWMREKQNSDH
Outline: (§1)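 Read-out: spectral counts from LC-MS/MS (Orbitrap Fusion) after MaxQuant identification. Variable modifications were Met oxidation, protein N-terminal acetylation and N/Q deamidation.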

TRRAP = TRRAP (human, UniProt Q9Y4A5 2-3859, limits assumed); assay: IP/MS, LZTR1 R810W-FLAG, U87
Outline: as §1

TRRAP, sequence (Q9Y4A5 2-3859 limits assumed): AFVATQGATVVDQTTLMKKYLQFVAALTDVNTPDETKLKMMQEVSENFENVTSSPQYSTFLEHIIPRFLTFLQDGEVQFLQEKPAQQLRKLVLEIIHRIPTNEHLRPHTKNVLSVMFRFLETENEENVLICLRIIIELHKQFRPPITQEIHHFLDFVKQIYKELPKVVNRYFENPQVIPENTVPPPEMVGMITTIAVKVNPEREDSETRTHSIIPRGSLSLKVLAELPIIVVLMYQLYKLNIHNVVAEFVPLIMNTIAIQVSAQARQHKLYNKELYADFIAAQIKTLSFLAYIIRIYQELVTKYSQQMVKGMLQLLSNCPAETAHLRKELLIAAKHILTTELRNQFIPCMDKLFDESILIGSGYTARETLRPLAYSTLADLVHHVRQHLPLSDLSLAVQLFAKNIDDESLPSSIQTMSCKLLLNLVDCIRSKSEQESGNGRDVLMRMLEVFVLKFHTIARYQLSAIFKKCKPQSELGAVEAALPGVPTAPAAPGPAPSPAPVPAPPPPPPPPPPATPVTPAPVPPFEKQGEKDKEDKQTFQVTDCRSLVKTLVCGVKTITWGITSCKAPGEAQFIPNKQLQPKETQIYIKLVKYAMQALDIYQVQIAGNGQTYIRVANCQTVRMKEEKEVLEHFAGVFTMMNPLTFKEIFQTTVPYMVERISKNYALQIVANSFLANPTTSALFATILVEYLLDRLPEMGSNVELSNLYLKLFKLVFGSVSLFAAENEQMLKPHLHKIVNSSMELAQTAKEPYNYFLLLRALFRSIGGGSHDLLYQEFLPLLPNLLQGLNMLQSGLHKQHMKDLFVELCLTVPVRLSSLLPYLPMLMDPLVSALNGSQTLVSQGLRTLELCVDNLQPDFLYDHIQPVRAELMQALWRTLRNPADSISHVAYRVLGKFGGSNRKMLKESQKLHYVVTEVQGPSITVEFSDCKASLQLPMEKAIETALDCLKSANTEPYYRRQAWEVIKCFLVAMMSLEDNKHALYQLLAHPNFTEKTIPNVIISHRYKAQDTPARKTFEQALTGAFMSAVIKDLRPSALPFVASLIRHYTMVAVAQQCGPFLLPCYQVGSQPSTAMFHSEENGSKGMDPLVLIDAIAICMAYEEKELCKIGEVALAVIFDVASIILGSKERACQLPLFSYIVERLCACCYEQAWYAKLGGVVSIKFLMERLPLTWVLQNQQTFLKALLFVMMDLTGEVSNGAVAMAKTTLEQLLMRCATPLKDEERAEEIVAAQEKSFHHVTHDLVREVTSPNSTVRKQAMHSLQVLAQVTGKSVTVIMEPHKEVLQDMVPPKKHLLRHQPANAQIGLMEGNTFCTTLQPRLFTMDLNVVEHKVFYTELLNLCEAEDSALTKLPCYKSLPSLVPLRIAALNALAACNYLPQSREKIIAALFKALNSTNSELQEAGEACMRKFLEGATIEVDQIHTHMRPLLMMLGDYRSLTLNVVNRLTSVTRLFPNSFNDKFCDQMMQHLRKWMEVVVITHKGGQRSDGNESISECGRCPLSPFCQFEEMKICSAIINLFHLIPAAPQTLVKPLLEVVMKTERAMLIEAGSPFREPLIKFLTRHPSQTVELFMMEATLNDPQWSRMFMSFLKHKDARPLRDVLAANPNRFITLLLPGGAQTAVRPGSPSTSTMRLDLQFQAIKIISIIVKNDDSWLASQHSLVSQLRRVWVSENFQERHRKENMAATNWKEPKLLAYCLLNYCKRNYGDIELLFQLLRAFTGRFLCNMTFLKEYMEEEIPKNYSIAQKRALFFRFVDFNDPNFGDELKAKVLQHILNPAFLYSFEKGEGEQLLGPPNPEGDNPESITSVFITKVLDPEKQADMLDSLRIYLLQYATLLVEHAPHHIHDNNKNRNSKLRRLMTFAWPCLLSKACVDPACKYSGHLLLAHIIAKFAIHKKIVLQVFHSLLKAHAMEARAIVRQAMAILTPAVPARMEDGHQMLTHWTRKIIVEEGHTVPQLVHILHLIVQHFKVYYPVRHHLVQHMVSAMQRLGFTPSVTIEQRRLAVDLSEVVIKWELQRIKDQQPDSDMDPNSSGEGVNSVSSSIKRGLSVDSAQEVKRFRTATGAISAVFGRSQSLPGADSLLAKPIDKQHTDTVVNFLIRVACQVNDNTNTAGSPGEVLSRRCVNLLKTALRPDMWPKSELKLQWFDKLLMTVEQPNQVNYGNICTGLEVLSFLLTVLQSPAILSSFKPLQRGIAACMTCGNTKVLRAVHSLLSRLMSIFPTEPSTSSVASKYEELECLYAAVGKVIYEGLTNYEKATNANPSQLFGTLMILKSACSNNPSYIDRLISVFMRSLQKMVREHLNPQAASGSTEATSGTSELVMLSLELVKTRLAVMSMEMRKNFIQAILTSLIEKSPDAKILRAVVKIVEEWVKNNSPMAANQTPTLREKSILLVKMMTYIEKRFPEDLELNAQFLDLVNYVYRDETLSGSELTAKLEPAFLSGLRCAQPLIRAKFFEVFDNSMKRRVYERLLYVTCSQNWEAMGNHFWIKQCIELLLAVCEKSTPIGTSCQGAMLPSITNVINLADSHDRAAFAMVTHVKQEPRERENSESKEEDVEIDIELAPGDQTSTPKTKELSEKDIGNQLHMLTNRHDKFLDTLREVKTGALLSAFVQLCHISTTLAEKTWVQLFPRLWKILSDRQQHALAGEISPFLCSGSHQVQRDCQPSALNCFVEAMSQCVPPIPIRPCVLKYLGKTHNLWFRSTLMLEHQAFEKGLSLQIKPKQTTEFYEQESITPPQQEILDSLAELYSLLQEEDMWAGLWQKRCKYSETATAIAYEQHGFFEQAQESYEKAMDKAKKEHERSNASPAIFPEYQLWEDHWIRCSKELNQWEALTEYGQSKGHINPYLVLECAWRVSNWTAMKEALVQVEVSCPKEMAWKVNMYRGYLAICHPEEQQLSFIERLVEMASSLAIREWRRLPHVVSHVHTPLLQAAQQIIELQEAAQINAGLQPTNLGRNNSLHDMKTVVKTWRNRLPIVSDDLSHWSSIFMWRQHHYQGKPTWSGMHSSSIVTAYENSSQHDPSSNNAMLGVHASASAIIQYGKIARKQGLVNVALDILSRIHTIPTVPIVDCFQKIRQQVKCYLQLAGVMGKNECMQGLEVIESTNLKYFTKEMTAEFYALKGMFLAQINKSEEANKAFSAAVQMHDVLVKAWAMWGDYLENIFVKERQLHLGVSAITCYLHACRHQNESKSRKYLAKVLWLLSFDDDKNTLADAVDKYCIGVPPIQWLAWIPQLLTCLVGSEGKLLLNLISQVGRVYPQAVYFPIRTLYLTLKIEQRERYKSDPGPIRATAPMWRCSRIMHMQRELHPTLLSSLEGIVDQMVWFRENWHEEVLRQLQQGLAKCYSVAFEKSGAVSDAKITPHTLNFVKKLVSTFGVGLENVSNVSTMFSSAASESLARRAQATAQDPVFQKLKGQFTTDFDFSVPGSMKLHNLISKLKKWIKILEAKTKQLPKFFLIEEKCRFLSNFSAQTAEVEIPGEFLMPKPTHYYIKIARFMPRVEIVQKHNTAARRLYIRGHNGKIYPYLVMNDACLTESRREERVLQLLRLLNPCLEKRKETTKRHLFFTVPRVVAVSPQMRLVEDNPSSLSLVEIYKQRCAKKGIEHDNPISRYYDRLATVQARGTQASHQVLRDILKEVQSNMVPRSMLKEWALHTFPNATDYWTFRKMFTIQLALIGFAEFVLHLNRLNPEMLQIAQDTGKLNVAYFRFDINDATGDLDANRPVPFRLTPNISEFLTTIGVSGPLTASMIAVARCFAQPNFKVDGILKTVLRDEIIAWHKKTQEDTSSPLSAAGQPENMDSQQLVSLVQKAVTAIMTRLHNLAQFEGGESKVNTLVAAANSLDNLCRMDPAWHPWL

B1: LZTR1 R810W-FLAG (other, human, UniProt Q8N653 1-840, looked up)
chain: MAGPGSTGGQIGAAALAGGARSKVAPSVDFDHSCSDSVEYLTLNFGPFETVHRWRRLPPCDEFVGARRSKHTVVAYKDAIYVFGGDNGKTMLNDLLRFDVKDCSWCRAFTTGTPPAPRYHHSAVVYGSSMFVFGGYTGDIYSNSNLKNKNDLFEYKFATGQWTEWKIEGRLPVARSAHGATVYSDKLWIFAGYDGNARLNDMWTIGLQDRELTCWEEVAQSGEIPPSCCNFPVAVCRDKMFVFSGQSGAKITNNLFQFEFKDKTWTRIPTEHLLRGSPPPPQRRYGHTMVAFDRHLYVFGGAADNTLPNELHCYDVDFQTWEVVQPSSDSEVGGAEVPERACASEEVPTLTYEERVGFKKSRDVFGLDFGTTSAKQPTQPASELPSGRLFHAAAVISDAMYIFGGTVDNNIRSGEMYRFQFSCYPKCTLHEDYGRLWESRQFCDVEFVLGEKEECVQGHVAIVTARSRWLRRKITQARERLAQKLEQEAAPVPREAPGVAAGGARPPLLHVAIREAEARPFEVLMQFLYTDKIKYPRKGHVEDVLLIMDVYKLALSFQLCRLEQLCRQYIEASVDLQNVLVVCESAARLQLSQLKEHCLNFVVKESHFNQVIMMKEFERLSSPLIVEIVRRKQQPPPRTPLDQPVDIGTSLIQDMKAYLEGAGAEFCDITLLLDGHPRPAHKAILAARSSYFEAMFRSFMPEDGQVNISIGEMVPSRQAFESMLRYIYYGEVNMPPEDSLYLFAAPYYYGFYNNRLQAYCKQNLEMNVTVQNVLQILEAADKTQALDMKRHCLHIIVHQFTKVSKLPTLWSLSQQLLLDIIDSLASHISDKQCAELGADI
notes: Stably expressed in U87 cells by lentivirus; also called LZTR1-FLAG-R810W; LZTR1 RW; not shown: FLAG tag
B1: binds (UBE4B); binds (TRRAP).
